{"source": "patent US20110212106A1", "about": "“HIV-1 NE[…] USES THEREOF” (priority 2010, published 2011)", "key": {"[1]": {"molecular_target": "IIIB gp120 envelope protein (HIV-1 IIIB) (UniProt P03375)", "experiment": "ELISA, inhibition of gp120 binding to solid-phase sCD4"}, "[2]": {"molecular_target": "HIV-1 gp120 (strain not stated at these places) (HIV-1)", "experiment": "competition ELISA on immobilized gp120, competitor labeled HJ16"}}, "data": [{"substance": "b12 (antibody)", "values": [{"measurement": "IC50", "setting": "[1]", "value": 1.16, "unit": "µg/mL"}, {"measurement": "plateau of inhibition", "setting": "[2]", "value": 80, "unit": "%"}]}]}
